Measured values as given in article PMC12261273, “Refinement and Truncation of DNA Aptamers Based on Molecular Dynamics Simulations: Computational Protocol and Experimental Validation”.

Key:
[1] = tested on: collagen XI 10-mer peptide (non-helical C-telopeptide fragment); assay: chronoamperometry (magnetic beads); settings: RT (electrochemistry), pH 7.4, PSA-1, B4 and truncations: 1x PBS (10 mM phosphate, 154 mM NaCl), 24nt variants: 10 mM Tris-HCl, 150 mM NaCl, 5 mM KCl
[2] = tested on: 33-mer immunodominant gluten (gliadin) peptide; assay: SPR; settings: RT (electrochemistry), pH 7.4, PSA-1, B4 and truncations: 1x PBS (10 mM phosphate, 154 mM NaCl), 24nt variants: 10 mM Tris-HCl, 150 mM NaCl, 5 mM KCl
[3] = tested on: 33-mer immunodominant gluten (gliadin) peptide; assay: chronoamperometry; settings: RT (electrochemistry), pH 7.4, PSA-1, B4 and truncations: 1x PBS (10 mM phosphate, 154 mM NaCl), 24nt variants: 10 mM Tris-HCl, 150 mM NaCl, 5 mM KCl
[4] = biological target: T1, prostate specific antigen (PSA) (human, UniProt P07288 25-261); assay: SPR; 5 mM MgCl2; RT (electrochemistry), pH 7.4; PSA-1, B4 and truncations: 1x PBS (10 mM phosphate, 154 mM NaCl); 24nt variants: 10 mM Tris-HCl, 150 mM NaCl, 5 mM KCl, 5 mM MgCl2; Gli1 series: 50 mM Tris-HCl, 250 mM NaCl, 5 mM MgCl2; settings: protein: native; label: 5' 6FAM; hairpin
[5] = biological target: T1, prostate specific antigen (PSA); assay: chronoamperometry; 5 mM MgCl2; RT (electrochemistry), pH 7.4; PSA-1, B4 and truncations: 1x PBS (10 mM phosphate, 154 mM NaCl); 24nt variants: 10 mM Tris-HCl, 150 mM NaCl, 5 mM KCl, 5 mM MgCl2; Gli1 series: 50 mM Tris-HCl, 250 mM NaCl, 5 mM MgCl2; settings: protein: native; label: 5' 6FAM; hairpin
[6] = biological target: T1, prostate specific antigen (PSA); assay: SPR; RT (electrochemistry), pH 7.4; PSA-1, B4 and truncations: 1x PBS (10 mM phosphate, 154 mM NaCl); 24nt variants: 10 mM Tris-HCl, 150 mM NaCl, 5 mM KCl, 5 mM MgCl2; Gli1 series: 50 mM Tris-HCl, 250 mM NaCl, 5 mM MgCl2; settings: protein: native; label: 5' 6FAM
[7] = biological target: T1, prostate specific antigen (PSA); assay: chronoamperometry; RT (electrochemistry), pH 7.4; PSA-1, B4 and truncations: 1x PBS (10 mM phosphate, 154 mM NaCl); 24nt variants: 10 mM Tris-HCl, 150 mM NaCl, 5 mM KCl, 5 mM MgCl2; Gli1 series: 50 mM Tris-HCl, 250 mM NaCl, 5 mM MgCl2; settings: protein: native; label: 5' 6FAM

T1 sequence (P07288 25-261): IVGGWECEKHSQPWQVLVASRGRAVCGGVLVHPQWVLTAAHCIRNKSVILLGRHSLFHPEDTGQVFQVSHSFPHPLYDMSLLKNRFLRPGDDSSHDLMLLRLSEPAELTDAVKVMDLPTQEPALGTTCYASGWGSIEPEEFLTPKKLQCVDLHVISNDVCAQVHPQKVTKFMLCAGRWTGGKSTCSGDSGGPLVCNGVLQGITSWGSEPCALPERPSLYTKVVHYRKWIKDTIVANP

Q: Which Kd [1] does the source give for “TTTTTGACGCAAGAAATTCAGGGCACCTGGAACGACGCGTCGGCT [B4]” here?
A: The Kd was 147 nM.

Q: “TTTTTATTCAGGGCACCTGGAACGACGCGTCGGCT [B4T(11-40)]” was tested. Which Kd [1] did it give?
A: Its Kd is 44 nM.

Q: Which results are given for “CTAGGCGAAATATAGCTACAACTGTCTGAAGGCACCCAAT [Gli1]”?
A: Kd [2]: 155 nM; Kd [3]: 136 nM

Q: What does the source list for “CTAGGCGAAATATAGCTACAACTGTCTGA [Gli1T(1-29)]”?
A: Kd [2]: 71 nM; Kd [3]: 86 nM

Q: With TTTTTAATTAAAGCTCGCCATCAAATAGCTTT (ssDNA) [5Ts-24nt-3Ts (deltaPSap4#5)] as the molecule, how does the Kd [4] read?
A: The Kd was 232 ± 4 nM.

Q: And the Kd [5]?
A: Its Kd is 152 ± 9 nM.

Q: How did the Kd [4] turn out when TTTTTAATTAAAGCTCGCCATCAAATAGC (ssDNA) [5Ts-24nt] was run?
A: Its Kd is 545 ± 24 nM.

Q: And the Kd [5]?
A: The Kd was 460 ± 64 nM.

Q: How did the Kd [6] turn out when TTTTTTATTTAACCAAAAGTCTGGATTAACA (ssDNA) [PSA-1T(15-40)] was run?
A: Its Kd is 130 ± 25 nM.

Q: What about the Kd [7] of the same molecule?
A: Its Kd is 111 ± 9 nM.

Q: TTTTTGGACGGTTGCGCTATATTTAACCAAAAGTCTGGATTAACA (ssDNA) [PSA-1] was tested. Which Kd [6] did it give?
A: Its Kd is 125 ± 21 nM.

Q: And the Kd [7]?
A: The Kd was 348 ± 58 nM.
